Laboratory results reported in the supplement of paper PMC9732359.
± gives the uncertainty stated by the source.

Assay: protein stability index of a GFP-peptide fusion (yeast GPS) (PSI 1-4); higher = more stable; sorted into four equal gates, so the index is relative within each strain
Procedure, shortened: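 Sequencing reads from sorted gates were used to score each peptide. The library consisted of tiled 17-residue yeast protein peptides fused downstream of GFP on a Cherry-expressing plasmid, pooled and carried in yeast. Mid-log cultures in leucine-free medium were split into four equal gates by GFP/Cherry ratio, and each gate's plasmids were PCR-amplified and Illumina-sequenced. The protein stability index adds up, over all gates, the read frequency multiplied by the gate number.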

Sequence	protein stability index (doa10∆)	protein stability index (pdr5∆)	protein stability index (san1∆)	protein stability index (ubr1∆)
NNAHSSDLGTVVFDSNE [YMR153W/NUP53]	2.56 ± 0.16	2.46 ± 0.093	2.24 ± 0.1	1.85 ± 0.082
SDRREHDEKLSDELHNQ [LIN1]	–	2.56 ± 0.18	3.19 ± 0.16	2.89 ± 0.16
PWFWLLPLWHLLNRIPR [POP1]	2.57 ± 0.084	1.56 ± 0.054	1.33 ± 0.12	1.26 ± 0.046
RMVRSIMWQLLDGVSYL [SSN3]	1.27 ± 0.078	1.26 ± 0.1	1.18 ± 0.12	1.34 ± 0.1
NPIDPFNIIREFRSAAG [YDL116W/NUP84]	3.14 ± 0.074	3.14 ± 0.07	3.16 ± 0.043	3.09 ± 0.063
HGYFLQDKEKIDNLKDT [ITC1]	3.18 ± 0.072	3.41 ± 0.069	3.24 ± 0.057	3.42 ± 0.057
NGNITYSEEPREKVRKL [FAS2]	2.99 ± 0.17	3.54 ± 0.18	3.3 ± 0.2	3.53 ± 0.18
YLRVSFKNTRETAQAIN [RPL17A]	1.51 ± 0.03	1.34 ± 0.042	1.5 ± 0.1	1.31 ± 0.034
KASTYGELVLDIEVPDV [SNF12]	2.61 ± 0.058	2.28 ± 0.051	2.13 ± 0.075	1.87 ± 0.045
DIKDFADKVYTKENLEV [QCR2]	3.34 ± 0.092	3.42 ± 0.11	2.69 ± 0.12	3.33 ± 0.053
FVSRIPIMFQDFDDSTA [IRR1]	2.1 ± 0.04	1.96 ± 0.042	1.69 ± 0.053	2 ± 0.03
YQELGSLQSSSQTQLEN [MED2]	2.96 ± 0.11	3.3 ± 0.082	3.08 ± 0.08	3.17 ± 0.072
GNGITNTTTRVIPQVEV [SNF5]	3.02 ± 0.15	2.58 ± 0.095	1.98 ± 0.21	2.49 ± 0.1
MDPGAPLPVETPRDRRK [SSN2]	–	–	3.25 ± 0.25	–
RSNKIKVVKTPGGILRA [RPL34A]	2.64 ± 0.068	2.12 ± 0.047	2.49 ± 0.064	2.2 ± 0.041
ANSSITPAFGSNNTGNT [YJL041W/NSP1]	2.65 ± 0.068	2.86 ± 0.049	2.72 ± 0.048	2.87 ± 0.031
LKIHQSHLVVPYCPIAS [YMR129W/POM152]	1.25 ± 0.063	1.29 ± 0.061	1.24 ± 0.12	1.28 ± 0.035
ETHPDNSNKQAVAILAD [BRR2]	2.78 ± 0.053	2.93 ± 0.049	2.81 ± 0.045	2.98 ± 0.038
NESKIKELNEKIQKLEE [RPN7]	2.95 ± 0.16	2.48 ± 0.11	2.26 ± 0.14	2.09 ± 0.14
AELVQKYIGEGSRMVRE [RPT6]	2.74 ± 0.088	2.69 ± 0.075	2.65 ± 0.075	2.33 ± 0.11
NENDLKTYNCLHEKYLT [SMC1]	2.2 ± 0.072	2.68 ± 0.053	2.11 ± 0.083	3.02 ± 0.056
DQSIASGNTNGAGSAFG [YOR098C/NUP1]	3.26 ± 0.072	2.49 ± 0.06	2.44 ± 0.079	2.49 ± 0.078
ALVAGIERYPSKVTKKH [RPL27B]	1.86 ± 0.082	1.99 ± 0.063	1.47 ± 0.12	1.96 ± 0.2
PHTTLVNECIAQSHQRF [CDC53]	2.79 ± 0.066	2.92 ± 0.052	2.85 ± 0.055	2.98 ± 0.039
ELKYQRSLRATAEERVG [RPL15A]	1.27 ± 0.083	1.48 ± 0.11	1.67 ± 0.19	1.09 ± 0.054
YEYGAVSVLLISKDCSA [BRR2]	2.12 ± 0.047	1.97 ± 0.043	1.91 ± 0.081	1.81 ± 0.041
IALNLDTTVNDCLDKLL [SNF2]	2.54 ± 0.14	3.06 ± 0.14	2.65 ± 0.1	2.9 ± 0.073

Sequence	protein stability index (doa10∆)	protein stability index (pdr5∆)	protein stability index (san1∆)	protein stability index (ubr1∆)
DFPHLTPKLQTQLSYLI [YCS4]	2.82 ± 0.043	2.88 ± 0.045	2.79 ± 0.044	2.67 ± 0.038
SMENTPKVPVSAAATPS [GAL11]	2.07 ± 0.045	2.19 ± 0.049	2.24 ± 0.065	1.78 ± 0.036
IFSYGPHIQKMLSILEI [POP6]	2.27 ± 0.12	1.93 ± 0.067	2.56 ± 0.15	2.24 ± 0.073
LTESQTETYISDLVNQG [RPN5]	3.18 ± 0.076	3.38 ± 0.071	3.12 ± 0.051	3.21 ± 0.071
CDILVATPGRLIDSLEN [PRP28]	3.54 ± 0.12	3.24 ± 0.11	3.2 ± 0.06	3.22 ± 0.065
SYPILNESSTFLKLVLS [SIN4]	1.97 ± 0.035	2.27 ± 0.034	2.11 ± 0.05	2.22 ± 0.031
KELENNLERLRSDLQSK [YIL149C/MLP2]	3.17 ± 0.062	3.3 ± 0.094	3.05 ± 0.068	3.2 ± 0.053
GIIVAVDSRATAGNWVA [PRE2]	1.14 ± 0.064	1.46 ± 0.079	1.24 ± 0.13	1.54 ± 0.082
AGKWFDPVLDWRKSDRE [SIR4]	3.17 ± 0.088	3.44 ± 0.087	2.71 ± 0.14	3.18 ± 0.066
SNVFGSNNSTTNTFGSN [YJL041W/NSP1]	3.08 ± 0.063	3.44 ± 0.076	3.22 ± 0.043	3.47 ± 0.054
QGLAMVEKYAPDVVRSL [RRP42]	2.25 ± 0.15	2.47 ± 0.16	2.3 ± 0.15	2.72 ± 0.13
DIYMHDVNSASKSESDS [RRP4]	3.59 ± 0.12	3.48 ± 0.1	3.15 ± 0.098	3.22 ± 0.066
KNPLFSYVEPVLVASAK [RPL31A]	2.95 ± 0.075	2.57 ± 0.064	2.49 ± 0.066	2.76 ± 0.05
LEWLENPSNTPDKDYLL [FAS1]	3.16 ± 0.11	3.21 ± 0.088	3.27 ± 0.071	3.29 ± 0.11
SNMQKSLLPYYHLTKAV [RPN3]	2.02 ± 0.038	1.87 ± 0.044	1.85 ± 0.062	1.92 ± 0.033
SLVSTQSSSSTRSHEYG [REC8]	2.86 ± 0.08	3.04 ± 0.11	2.72 ± 0.057	3.19 ± 0.12
YSLASVTLKGAKALESL [POP1]	2.78 ± 0.049	2.83 ± 0.052	2.83 ± 0.045	2.77 ± 0.052
DVKLLHSQFMKDLKDDS [YJL039C/NUP192]	2.72 ± 0.075	2.85 ± 0.091	2.98 ± 0.077	2.72 ± 0.055
WQYYYYTLTEEGVEYLR [RPS10A]	2.58 ± 0.084	2.66 ± 0.072	2.74 ± 0.098	3.21 ± 0.1
LIKMSRSPPRPPSLKII [PRP28]	2.16 ± 0.062	2.3 ± 0.068	2.3 ± 0.072	1.86 ± 0.052
PASKQGYLITPPKHTEL [SSN2]	–	3.31 ± 0.3	2.49 ± 0.17	–
LQFRPAPMYILDEVDAA [SMC2]	1.59 ± 0.2	1.89 ± 0.25	–	1.89 ± 0.1
TLTDILEDELYHTNPGH [RPN4]	3.04 ± 0.055	3.25 ± 0.049	3.1 ± 0.064	3.21 ± 0.043
IFHPMIHYSWSFILYYR [YML103C/NUP188]	1.74 ± 0.051	1.68 ± 0.032	1.69 ± 0.063	1.98 ± 0.048
TPDATKIKAILESVGIE [RPP2A]	2.31 ± 0.084	3.2 ± 0.16	3.08 ± 0.12	3.18 ± 0.063
NWRSFNAKIIDAEVAQF [SRP68]	2.53 ± 0.071	2.56 ± 0.048	2.01 ± 0.073	2.43 ± 0.098
